Entries after “also recorded” stand apart in the source; their conditions may differ.
T1: MORT1 (Homo sapiens, UniProt Q13158)
T1 sequence (Q13158 1-208): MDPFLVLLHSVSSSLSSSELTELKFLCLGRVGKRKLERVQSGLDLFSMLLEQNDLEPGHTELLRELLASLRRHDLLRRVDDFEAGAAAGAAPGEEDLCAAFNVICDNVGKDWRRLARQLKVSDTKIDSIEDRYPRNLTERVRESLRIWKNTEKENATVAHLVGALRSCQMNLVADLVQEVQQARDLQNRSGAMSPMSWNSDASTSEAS


Assays:
MORT1 [1] = biological target: T1, MORT1; experiment: Co-immunoprecipitation with co-expressed MORT1 from HeLa cell lysates; format: binding; parameters: expressed in transfected cells; host or cells: HeLa cells; conditions: HeLa cells; FLAG-tagged MACH, HA-tagged MORT1
From the text: It has been shown also to contribute to, though not to suffice in, the self association of MORT-1 (see Example 1). […] To further assess the involvement of the MORT modules in these interactions, deletion mutants of MACHβ1, fused with the FLAG octapeptide (FLAG-MACHβ1), were expressed in HeLa cells and assessed for their binding in vitro to bacterial-produced […] fusion protein (GST-MORT-1). […] FIGS. 9A and 9B show the results (autoradiograms) of the in vitro interaction of MACHβ1 and its deletion mutants with MORT-1. Briefly, 35 [S] metabolically labeled MACHβ1, MACHβ1 fused at its N-terminus to the FLAG octapeptide (FLAG-MACHβ1), C-terminus truncation mutants of FLAG-MACHβ1, and, as a control, luciferase, were produced in transfected HeLa cells. […]
Testing further if MACHα1 can bind to MORT1 also within mammalian cells, MACHα1 or MACHβ1, fused with the FLAG octapeptide was expressed, together with HA epitope-tagged MORT1 molecules. ^35[S] metabolically labeled MACHα1 and MACHβ1 fused at their N-termini to the FLAG octapeptide (FLAG-MACHα1 and β1), and MORT1 fused at its N terminus to the HA epitope (Field et al, 1988) were expressed in HeLa cells. […] The proteins were analyzed by SDS-polyacrylamide gel electrophoresis (12% acrylamide), followed by autoradiography. […]

MORT1 [2] = biological target: T1, MORT1; experiment: Co-immunoprecipitation with MORT-1 from 293-EBNA cell lysates; format: binding; parameters: expressed in transfected cells; host or cells: 293-EBNA; HeLa (detail in the same paragraph); conditions: lysates of human embryonic kidney 293-EBNA cells
Method: Testing further if MACHα1 can bind to MORT1 also within mammalian cells, MACHα1 or MACHβ1, fused with the FLAG octapeptide was expressed, together with HA epitope-tagged MORT1 molecules. ^35[S] metabolically labeled MACHα1 and MACHβ1 fused at their N-termini to the FLAG octapeptide (FLAG-MACHα1 and β1), and MORT1 fused at its N terminus to the HA epitope (Field et al, 1988) were expressed in HeLa cells. Immunoprecipitation of the proteins from lysates of the cells was performed using mouse monoclonal antibodies against the FLAG octapeptide (M2; Eastman Kodak), HA epitope (12CA5, Field et al, 1988) or the p75 TNF receptor (#9, Bigda et al, 1994) as a control. The proteins were analyzed by SDS-polyacrylamide gel electrophoresis (12% acrylamide), followed by autoradiography. […] The effectivity of interaction of MACHα1 with MORT1 appeared to be lower than that of MACHβ1.

HeLa cells = experiment: Cell death on overexpression of MACH isoforms in HeLa cells; format: cell-based; conditions: FIG. 19
Method: In brief, 293-EBNA cells, MCF7 human breast carcinoma cells and HeLa HtTA-1 cells were grown in Dulbecco's modified Eagle's minimal essential medium supplemented with 10% fetal calf serum, nonessential amino acids, 100 U/ml penicillin and 100 μg/ml streptomycin. Cell tissue culture dishes (5×10^5 293-EBNA cells, 3×10^5 s MCF7 cells or 3×10^5 HeLa cells in 6-cm dishes) were transiently transfected, using the calcium phosphate precipitation method, with the cDNAs of the indicated proteins together with the β-galactosidase expression vector. In the experiments presented in FIGS. 14A-D and 15, each dish was transfected with 3.5 μg of the indicated MACH construct and 1.5 μg of pSV-β-gal. In the experiments presented in FIGS. 16A-D and 17-19, each dish was transfected with 2.5 μg of the indicated MACH or MORT1 construct (or, as control, empty vector) and 1.5 μg of pSV-β-gal. The cells were rinsed 6 to 10 h after transfection. The 293-EBNA and MCF7 cells were incubated for a further 18 h without additional treatment. The HeLa cells were incubated for 26 h after transfection and-then for 5 h in the presence of either anti-Fas.APO1 antibody (CH11, 0.5 μg/ml) or TNF (100 ng/ml), together with cycloheximide (10 μg/ml). The extent of cell death at the end of the incubation periods was assessed by determination of β-galactosidase expression, as described by Kumar et al, 1994.
To examine the involvement of the CED3/ICE homology region within the MACHα isoforms in their apoptopic effects, cells were transfected with the expression vector for the MACHβ1 isoform, which lacks the CED3/ICE homology region, as well as with expression vectors for MACHα3, which lacks an N-terminal part of the region, and with expression vectors for MACHα1 (C360S) and for a C-terminally truncated mutant of MACHα1 (MACHα1 (1-415)), which lacks one of the residues believed to be critical for CED3/ICE protease function (corresponding to Ser347 in ICE). […]

Row | Molecule | binding to co-expressed MORT1 (co-immunoprecipitation) (MORT1 [1]) | coimmunoprecipitation with MORT-1 (MORT1 [2]) | cytotoxicity in transfected HeLa cells (HeLa cells)
1 | MACHα1: MACH isoform, cDNA SEQ ID NO: 14, amino acid SEQ ID NO: 7; contains CED3/ICE homology region | co-immunoprecipitated | – | –
2 | MACHβ1: MACH isoform, cDNA SEQ ID NO: 4, amino acid SEQ ID NO: 5; lacks the CED3/ICE homology region (protein) MDFSRNLYDIGEQLDSEDLASLKFLSLDYIPQRKQEPIKDALMLFQRLQEKRMLEESNLSFLKELLFRINRLDLLITYLNTRKEEMERELQTPGRAQISAYRVMLYQISEEVSRSELRSFKFLLQEEISKCKLDDDMNLLDIFIEMEKRVILGEGKLDILKRVCAQINKSLLKIINDYEEFSKERSSSLEGSPDEFSNDFGQSLPNEKQTSGILSDHQQSQFCKSTGESAQTSQH | bound; also recorded: co-immunoprecipitated | coimmunoprecipitated | more pronounced; also recorded: rather significant cytoxic effect
3 | MACHα1 (C360S): MACHα1 mutant in which the catalytic cysteine Cys360 is replaced by Ser (protein) MDFSRNLYDIGEQLDSEDLASLKFLSLDYIPQRKQEPIKDALMLFQRLQEKRMLEESNLSFLKELLFRINRLDLLITYLNTRKEEMERELQTPGRAQISAYRVMLYQISEEVSRSELRSFKFLLQEEISKCKLDDDMNLLDIFIEMEKRVILGEGKLDILKRVCAQINKSLLKIINDYEEFSKERSSSLEGSPDEFSNGEELCGVMTISDSPREQDSESQTLDKVYQMKSKPRGYCLIINNHNFAKAREKVPKLHSIRDRNGTHLDAGALTTTFEELHFEIKPHDDCTVEQIYEILKIYQLMDHSNMDCFICCILSHGDKGIIYGTDGQEAPIYELTSQFTGLKCPSLAGKPKVFFIQASQGDNYQKGIPVETDSEEQPYLEMDLSSPQTRYIPDEADFLLGMATVNNCVSYRNPAEGTWYIQSLCQSLRERCPRGDDILTILTEVNYEVSNKDDKKNMGKQMPQPTFTLRKKLVFPSD | – | coimmunoprecipitated | somewhat cytotoxic

Reference: US7799901B2, “Modulators of the function of FAS receptors and other proteins” (Yeda Research and Development Co. Ltd., priority 1995, dated 2010)
